The assay concerns the target CD20 cell surface antigen (human) (UniProt P11836). Nature of the assay: flow cytometry of FAM-ODN fluorescence on Raji cells.

Experimental findings from patent publication US20110038941A1 are described below.

Sequence of UniProt P11836 (P11836 whole entry): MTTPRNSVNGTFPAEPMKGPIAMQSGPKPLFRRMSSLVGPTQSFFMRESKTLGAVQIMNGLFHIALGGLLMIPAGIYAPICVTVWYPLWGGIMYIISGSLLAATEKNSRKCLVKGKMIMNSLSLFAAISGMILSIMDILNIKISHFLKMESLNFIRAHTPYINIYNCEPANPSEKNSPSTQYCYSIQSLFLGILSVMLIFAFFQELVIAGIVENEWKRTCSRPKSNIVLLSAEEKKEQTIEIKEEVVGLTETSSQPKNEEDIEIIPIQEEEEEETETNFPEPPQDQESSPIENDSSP

The substance “Rituximab (anti-CD20 antibody) conjugated cationic immunoliposomes” registered a fold fluorescence intensity of FAM-ODN against FAM-ODN loaded LP and Her ILP of 10 fold; a fold fluorescence intensity of FAM-ODN against free FAM-ODN of 20 fold.
